Experimental data published in patent US20210238260.
Substitutions are numbered along the chain they refer to. Names and notes keep the numbering of the source.

Target: Factor X, P00742
Sequence (P00742 whole entry, looked up): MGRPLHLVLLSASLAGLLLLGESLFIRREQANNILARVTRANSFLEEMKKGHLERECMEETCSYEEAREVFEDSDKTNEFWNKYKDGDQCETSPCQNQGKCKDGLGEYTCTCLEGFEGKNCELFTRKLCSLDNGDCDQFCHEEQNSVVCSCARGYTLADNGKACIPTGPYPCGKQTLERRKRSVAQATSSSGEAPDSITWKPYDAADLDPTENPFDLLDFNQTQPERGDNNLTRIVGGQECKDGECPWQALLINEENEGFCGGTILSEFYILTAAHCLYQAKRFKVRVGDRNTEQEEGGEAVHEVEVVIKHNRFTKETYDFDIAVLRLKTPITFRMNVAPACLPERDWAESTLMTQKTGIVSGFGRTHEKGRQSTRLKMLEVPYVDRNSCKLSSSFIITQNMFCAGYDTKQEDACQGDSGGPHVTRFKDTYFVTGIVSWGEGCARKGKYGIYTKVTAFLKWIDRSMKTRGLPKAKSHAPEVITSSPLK

B1: FIXa-R318Y/R338E/T343R/R403E (protein)
chain 1: YNSGKLEEFVQGNLERECMEEKCSFEEAREVFENTERTTEFWKQYVDGDQCESNPCLNGGSCKDDINSYECWCPFGFEGKNCELDVTCNIKNGRCEQFCKNSADNKVVCSCTEGYRLAENQKSCEPAVPFPCGRVSVSQTSKLTR
chain 2: VVGGEDAKPGQFPWQVVLNGKVDAFCGGSIVNEKWIVTAAHCVETGVKITVVAGEHNIEETEHTEQKRNVIRIIPHHNYNAAINKYNHDIALLELDEPLVLNSYVTPICIADKEYTNIFLKFGSGYVSGWGRVFHKGYSALVLQYLRVPLVDRATCLESTKFRIYNNMFCAGFHEGGRDSCQGDSGGPHVTEVEGTSFLTGIISWGEECAMKGKYGIYTKVSEYVNWIKEKTKLT
% of WT kcat/KM: 357%
kcat: 6.7 s⁻¹
kcat/KM: 1.6e+08 M⁻¹ s⁻¹

B2: FIXa-Y155F/R318Y/R338E/T343R/R403E (protein)
chain 1: B1 chain 1
chain 2: B1 chain 2
% of WT kcat/KM: 563%
kcat: 8.2 s⁻¹
kcat/KM: 2.6e+08 M⁻¹ s⁻¹

B3: FIXa-Y155F/R318Y/R338E/T343R/E410N (protein)
chain 1: B1 chain 1
chain 2: B1 chain 2 with E223R, E230N
% of WT kcat/KM: 794%
kcat: 9.2 s⁻¹
kcat/KM: 3.7e+08 M⁻¹ s⁻¹

B4: FIXa-R318Y/T343R/R403E/E410N (protein)
chain 1: B1 chain 1
chain 2: B1 chain 2 with E158R, E230N
% of WT kcat/KM: 125%
kcat: 5.3 s⁻¹
kcat/KM: 5.8e+07 M⁻¹ s⁻¹

B5: FIXa-Y155F/R318Y/T343R/R403E/E410N (protein)
chain 1: B1 chain 1
chain 2: B1 chain 2 with E158R, E230N
% of WT kcat/KM: 571%
kcat: 8.8 s⁻¹
kcat/KM: 2.6e+08 M⁻¹ s⁻¹

B6: FIXa-R338E/T343R/R403E/E410N (protein)
chain 1: B1 chain 1
chain 2: B1 chain 2 with Y138R, E230N
% of WT kcat/KM: 650%
kcat: 9.8 s⁻¹
kcat/KM: 3e+08 M⁻¹ s⁻¹

B7: FIXa K293A/R338A/R403A (protein)
chain 1: B1 chain 1
chain 2: B1 chain 2 with K113A, Y138R, E158A, R163T, E223A
KM of FX activation by FIXa in the Xase complex (FVIIIa, PC/PS vesicles, Ca2+); fluorogenic FXa substrate: 0.0654 µM

B8: FIXa K293E/R338E/R403E (protein)
chain 1: B1 chain 1
chain 2: B1 chain 2 with K113E, Y138R, R163T
KM of FX activation by FIXa in the Xase complex (FVIIIa, PC/PS vesicles, Ca2+); fluorogenic FXa substrate: 0.05 µM

B9: FIXa Y155F/K228N/K247N/N249S/R318Y/R338E/R403E/E410N (protein)
chain 1: B1 chain 1
chain 2: B1 chain 2 with K48N, K67N, N69S, R163T, E230N
% of WT kcat/KM: 263%
KM (FX activation by FIXa in Xase complex with FVIIIa, PC/PS vesicles, Ca2+): 0.0454 µM
kcat/KM: 1.2e+08 M⁻¹ s⁻¹

B10: FIXa R318Y/R338E/R403E/E410N/T412V (protein)
chain 1: B1 chain 1
chain 2: B1 chain 2 with R163T, E230N, T232V
% of WT kcat/KM: 342%
KM (FX activation by FIXa in Xase complex with FVIIIa, PC/PS vesicles, Ca2+): 0.0483 µM
kcat/KM: 1.6e+08 M⁻¹ s⁻¹

B11: FIXa R318Y/R338E/R403E/E410N/T412A (protein)
chain 1: B1 chain 1
chain 2: B1 chain 2 with R163T, E230N, T232A
% of WT kcat/KM: 538%
KM (FX activation by FIXa in Xase complex with FVIIIa, PC/PS vesicles, Ca2+): 0.0344 µM
kcat/KM: 2.5e+08 M⁻¹ s⁻¹

B12: FIXa R318Y/R338E/R403E/T412A (protein)
chain 1: B1 chain 1
chain 2: B1 chain 2 with R163T, T232A
% of WT kcat/KM: 173%
KM (FX activation by FIXa in Xase complex with FVIIIa, PC/PS vesicles, Ca2+): 0.0675 µM
kcat/KM: 8e+07 M⁻¹ s⁻¹

B13: FIXa R318Y/R338E/T412A (protein)
chain 1: B1 chain 1
chain 2: B1 chain 2 with R163T, E223R, T232A
% of WT kcat/KM: 642%
KM (FX activation by FIXa in Xase complex with FVIIIa, PC/PS vesicles, Ca2+): 0.0235 µM
kcat/KM: 3e+08 M⁻¹ s⁻¹
